The target in the test is nucleosome with Cy5-labeled human histone octamer (H2A(K119C), H2B, H3(C110A), H4) reconstituted on lambda DNA (human) (UniProt P06899). Put plainly: single-molecule fluorescence colocalisation.

Substance “Cy3-labeled human linker histone H1.0(S22C) (from UniProt P07305 1-194) (natural protein)” returned a nucleosome co-localization dwell time τ slow (with 2 nM Nap1) of 1.1 s.
